Results from patent publication CN117886935A (BEIJING KENUO XINCHENG TECH CO LTD, dated 2024).

Tests used:
[1] = target: CSF-1R on CSF-1R/SRE-Luc/HEK293 reporter cells (UniProt P07333 20-972, limits assumed); experiment: cell-based or functional assay
CSF-1R-mFc [2] = target: T1, CSF-1R-mFc (human, UniProt P07333 20-512, limits assumed); experiment: competition ELISA: human IL-34 coated, CSF-1R-mFc 0.15 μg/ml premixed with antibody
T1 construct: not shown: mouse Fc (mFc)

CSF-1R-mFc [3] = target: T1, CSF-1R-mFc; experiment: competition ELISA: CSF1-His coated, CSF-1R-mFc 0.15 μg/ml premixed with antibody
[4] = target: T2, 人CSF-1R-his重组蛋白 (human CSF-1R-his recombinant protein) (human, UniProt P07333 20-512, limits assumed); experiment: BLI (ForteBio)
T2 construct: Analyte of the ForteBio assay, 60 nM; also called CD115; M-CSF-R; not shown: His tag

[5] = target: T3, CSF-1R on rhCSF-1R-CHO cells (human, UniProt P07333 20-972); experiment: flow cytometry on rhCSF-1R-CHO cells, FITC goat anti-human
T3 construct: whole, on cells; also called 细胞表面CSF-1R; CSF-1R-CHO细胞

[6] = target: T2, 人CSF-1R-his重组蛋白 (human CSF-1R-his …); experiment: BLI (ForteBio), antibody on AHC probe, CSF-1R-his 60 nM, 1:1 fit

T1 sequence (P07333 20-512 limits assumed): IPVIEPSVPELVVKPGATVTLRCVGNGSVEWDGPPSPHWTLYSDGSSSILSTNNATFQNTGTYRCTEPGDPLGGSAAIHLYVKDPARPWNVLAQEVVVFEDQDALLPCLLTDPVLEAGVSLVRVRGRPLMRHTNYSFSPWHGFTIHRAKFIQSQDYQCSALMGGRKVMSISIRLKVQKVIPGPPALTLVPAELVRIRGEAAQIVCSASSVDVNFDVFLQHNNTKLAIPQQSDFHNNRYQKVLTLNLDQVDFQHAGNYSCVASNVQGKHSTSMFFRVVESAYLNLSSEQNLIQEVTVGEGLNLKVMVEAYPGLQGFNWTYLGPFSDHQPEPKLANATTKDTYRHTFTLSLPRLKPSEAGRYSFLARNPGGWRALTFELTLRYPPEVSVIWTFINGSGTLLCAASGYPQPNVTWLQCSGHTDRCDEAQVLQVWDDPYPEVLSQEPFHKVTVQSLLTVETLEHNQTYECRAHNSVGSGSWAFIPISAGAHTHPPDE
T2 sequence (P07333 20-512 limits assumed): as above
T3 sequence (P07333 20-972): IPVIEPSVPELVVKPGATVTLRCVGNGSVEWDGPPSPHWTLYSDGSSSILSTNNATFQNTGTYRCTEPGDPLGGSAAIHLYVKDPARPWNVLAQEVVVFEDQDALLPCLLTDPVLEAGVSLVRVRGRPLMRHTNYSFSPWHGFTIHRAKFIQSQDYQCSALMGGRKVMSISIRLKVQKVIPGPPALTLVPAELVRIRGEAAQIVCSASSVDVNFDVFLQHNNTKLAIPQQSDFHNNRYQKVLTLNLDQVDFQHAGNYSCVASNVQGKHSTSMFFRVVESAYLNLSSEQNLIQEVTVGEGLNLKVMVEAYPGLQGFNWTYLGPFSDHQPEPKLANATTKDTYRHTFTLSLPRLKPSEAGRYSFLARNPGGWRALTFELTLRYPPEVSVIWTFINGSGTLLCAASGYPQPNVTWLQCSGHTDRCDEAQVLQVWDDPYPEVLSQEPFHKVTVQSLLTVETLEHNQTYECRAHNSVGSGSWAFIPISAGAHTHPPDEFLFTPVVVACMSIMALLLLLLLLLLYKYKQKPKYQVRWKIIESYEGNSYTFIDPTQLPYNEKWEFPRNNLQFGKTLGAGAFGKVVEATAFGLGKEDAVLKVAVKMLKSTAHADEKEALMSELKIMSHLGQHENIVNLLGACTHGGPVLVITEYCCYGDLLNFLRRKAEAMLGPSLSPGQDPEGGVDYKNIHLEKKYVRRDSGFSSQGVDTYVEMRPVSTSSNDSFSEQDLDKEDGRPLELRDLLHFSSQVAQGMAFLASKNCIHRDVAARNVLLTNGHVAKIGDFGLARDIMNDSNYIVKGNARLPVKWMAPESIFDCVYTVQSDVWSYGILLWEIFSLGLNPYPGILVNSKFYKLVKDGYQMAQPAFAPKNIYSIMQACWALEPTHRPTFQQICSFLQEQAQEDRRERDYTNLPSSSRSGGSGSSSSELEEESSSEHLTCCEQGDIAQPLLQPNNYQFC
CSF-1R on CSF-1R/SRE-Luc/HEK293 reporter cells, sequence (P07333 20-972 limits assumed): as the sequence (P07333 20-972) above

| Binder | Kd [4] [nM] | koff [4] [s⁻¹] | kon [4] [M⁻¹ s⁻¹] | also measured |
| --- | --- | --- | --- | --- |
| Lm2H (antibody, V domains shown) VH: EVQLVQSGAEVKKPGASVKVSCKASGYTFTDYNMDWVRQAPGQGLEWMGDIIPNYDSATYNQKFKGRVTMTRDTSTSTVYMELSSLRSEDTAVYYCARKGGGYVNWYFDVWGQGTTVTVSS VL: DIQMTQSPSSLSASVGDRVTITCHASQNINVYLSWYQQKPGKAPKLLIYKASNLHTGVPSRFSGSGSGTDFTFTISSLQPEDIATYYCQQGESYPYTFGGGTKVEIK | 0.109 | 1.14e-05 | 105000 |  |
| Lm4H (antibody, V domains shown) VH: EVQLVQSGAEVKKPGASVKVSCKASGYTFTDYNMDWVRQAPGQGLEWMGDIIPNYDSATYNQKFKGRVTMTRDTSTSTVYMELSSLRSEDTAVYYCARKGGGYVNWYFDVWGQGTTVTVSS VL: DIQMTQSPSSLSASVGDRVTITCHASQNINVYLNWYQQKPGKAPKLLIYKASNLHTGVPSRFSGSGSGTDFTFTISSLQPEDIATYYCQQGESYPYTFGGGTKVEIK | 0.189 | 1.93e-05 | 102000 |  |
| Lm5H (antibody, V domains shown) VH: EVQLVQSGAEVKKPGASVKVSCKASGYTFTDYNMDWVRQAPGQGLEWMGDIIPNYDSATYNQKFKGRVTMTRDTSTSTVYMELSSLRSEDTAVYYCARKGGGYVNWYFDVWGQGTTVTVSS VL: DIQMTQSPSSLSASVGDRVTITCHASQNINVWLSWYQQKPGKAPKLLIYDASNLHTGVPSRFSGSGSGTDFTFTISSLQPEDIATYYCQQGESYPYTFGGGTKVEIK | 0.105 | 2.1e-05 | 200000 |  |
| Lm6H (antibody, V domains shown) VH: EVQLVQSGAEVKKPGASVKVSCKASGYTFTDYNMDWVRQAPGQGLEWMGDIIPNYDSATYNQKFKGRVTMTRDTSTSTVYMELSSLRSEDTAVYYCARKGGGYVNWYFDVWGQGTTVTVSS VL: DIQMTQSPSSLSASVGDRVTITCHASQNINVWLSWYQQKPGKAPKLLIYKASNLETGVPSRFSGSGSGTDFTFTISSLQPEDIATYYCQQGESYPYTFGGGTKVEIK | 0.188 | 1.9e-05 | 101000 |  |
| Hm2L (antibody, V domains shown) VH: EVQLVQSGAEVKKPGASVKVSCKASGYTFTSYNMDWVRQAPGQGLEWMGDIIPNYDSATYNQKFKGRVTMTRDTSTSTVYMELSSLRSEDTAVYYCARKGGGYVNWYFDVWGQGTTVTVSS VL: DIQMTQSPSSLSASVGDRVTITCHASQNINVWLSWYQQKPGKAPKLLIYKASNLHTGVPSRFSGSGSGTDFTFTISSLQPEDIATYYCQQGESYPYTFGGGTKVEIK | 0.0963 | 2.9e-05 | 301000 |  |
| Hm4L (antibody, V domains shown) VH: EVQLVQSGAEVKKPGASVKVSCKASGYTFTDYNMDWVRQAPGQGLEWMGGIIPNYDSATYNQKFKGRVTMTRDTSTSTVYMELSSLRSEDTAVYYCARKGGGYVNWYFDVWGQGTTVTVSS VL: DIQMTQSPSSLSASVGDRVTITCHASQNINVWLSWYQQKPGKAPKLLIYKASNLHTGVPSRFSGSGSGTDFTFTISSLQPEDIATYYCQQGESYPYTFGGGTKVEIK | 0.125 | 1.4e-05 | 112000 |  |
| Lm4Hm7 (antibody, V domains shown) VH: EVQLVQSGAEVKKPGASVKVSCKASGYTFTSYNMHWVRQAPGQGLEWMGDIIPNYESATYAQKFKGRVTMTRDTSTSTVYMELSSLRSEDTAVYYCARKGGGYVNWYFDVWGQGTTVTVSS VL: DIQMTQSPSSLSASVGDRVTITCHASQNINVYLNWYQQKPGKAPKLLIYKASNLHTGVPSRFSGSGSGTDFTFTISSLQPEDIATYYCQQGESYPYTFGGGTKVEIK | 0.138 | 2.02e-05 | 146000 |  |
| Lm7Hm7 (antibody, V domains shown) VH: EVQLVQSGAEVKKPGASVKVSCKASGYTFTSYNMHWVRQAPGQGLEWMGDIIPNYESATYAQKFKGRVTMTRDTSTSTVYMELSSLRSEDTAVYYCARKGGGYVNWYFDVWGQGTTVTVSS VL: DIQMTQSPSSLSASVGDRVTITCRASQNINVWLSWYQQKPGKAPKLLIYDASNLETGVPSRFSGSGSGTDFTFTISSLQPEDIATYYCQQGESYPYTFGGGTKVEIK | 0.107 | 1.23e-05 | 115000 |  |

The next lines start with results.

| Kd [4] [nM] | koff [4] [s⁻¹] | kon [4] [M⁻¹ s⁻¹] | Binder | also measured |
| --- | --- | --- | --- | --- |
| 0.0605 | 1.3e-05 | 215000 | hz73 (antibody, V domains shown, also called 人源化抗体hz73) VH: EVQLVQSGAEVKKPGASVKVSCKASGYTFTDYNMDWVRQAPGQGLEWMGDIIPNYDSATYNQKFKGRVTMTRDTSTSTVYMELSSLRSEDTAVYYCARKGGGYVNWYFDVWGQGTTVTVSS VL: DIQMTQSPSSLSASVGDRVTITCHASQNINVWLSWYQQKPGKAPKLLIYKASNLHTGVPSRFSGSGSGTDFTFTISSLQPEDIATYYCQQGESYPYTFGGGTKVEIK | IC50, inhibition of CSF-1-stimulated (7.2 ng/ml) SRE-Luc reporter in CSF-1R/SRE-Luc/HEK293 cells [1]: 0.31 µg/mL; IC50, inhibition of IL-34-stimulated (85.06 ng/ml) SRE-Luc reporter in CSF-1R/SRE-Luc/HEK293 cells [1]: 0.8 µg/mL; IC50 (CSF-1R-mFc [2]): 0.393 nM; IC50 (CSF-1R-mFc [3]): 0.339 nM; EC50 [5]: 0.196 µg/mL |
| 0.03 | 6.54e-06 | 218000 | ch73 (antibody, human IgG1, kappa, V domains shown, also called 嵌合抗体ch73; 73号) VH: EVQLQQFGAELVKPGASVKISCKASGYTFTDYNMDWMKQSHGKSLEWIGDIIPNYDSATYNQKFKGKATLTVDRSSSTAYMELRSLSSEDTAVYYCARKGGGYVNWYFDVWGAGTTVTVSS VL: DIQMNQSPSSLSASLGDTITITCHASQNINVWLSWYQQKPGNIPKLLIYKASNLHTGVPSRFSGSGSGTGFTLTISSLQPEDIATYYCQQGESYPYTFGGGTKLEIKR | IC50 (CSF-1R-mFc [2]): ~0.71 nM; Kd [6]: 0.03 nM; koff [6]: 6.54e-06 s⁻¹; kon [6]: 218000 M⁻¹ s⁻¹; IC50 (CSF-1R-mFc [3]): 0.323 nM |
| 0.0683 | 1.4e-05 | 205000 | Lm1H (antibody, V domains shown) VH: EVQLVQSGAEVKKPGASVKVSCKASGYTFTDYNMDWVRQAPGQGLEWMGDIIPNYDSATYNQKFKGRVTMTRDTSTSTVYMELSSLRSEDTAVYYCARKGGGYVNWYFDVWGQGTTVTVSS VL: DIQMTQSPSSLSASVGDRVTITCRASQNINVWLSWYQQKPGKAPKLLIYKASNLHTGVPSRFSGSGSGTDFTFTISSLQPEDIATYYCQQGESYPYTFGGGTKVEIK |  |
| 0.0935 | 1.45e-05 | 155000 | Lm3H (antibody, V domains shown) VH: EVQLVQSGAEVKKPGASVKVSCKASGYTFTDYNMDWVRQAPGQGLEWMGDIIPNYDSATYNQKFKGRVTMTRDTSTSTVYMELSSLRSEDTAVYYCARKGGGYVNWYFDVWGQGTTVTVSS VL: DIQMTQSPSSLSASVGDRVTITCHASQNINVWLNWYQQKPGKAPKLLIYKASNLHTGVPSRFSGSGSGTDFTFTISSLQPEDIATYYCQQGESYPYTFGGGTKVEIK | EC50 [5]: 0.253 µg/mL |
| 0.0634 | 1.3e-05 | 205000 | Lm7H (antibody, V domains shown) VH: EVQLVQSGAEVKKPGASVKVSCKASGYTFTDYNMDWVRQAPGQGLEWMGDIIPNYDSATYNQKFKGRVTMTRDTSTSTVYMELSSLRSEDTAVYYCARKGGGYVNWYFDVWGQGTTVTVSS VL: DIQMTQSPSSLSASVGDRVTITCRASQNINVWLSWYQQKPGKAPKLLIYDASNLETGVPSRFSGSGSGTDFTFTISSLQPEDIATYYCQQGESYPYTFGGGTKVEIK | EC50 [5]: 0.201 µg/mL |
| 0.0853 | 2.2e-05 | 258000 | Hm1L (antibody, V domains shown) VH: EVQLVQSGAEVKKPGASVKVSCKASGYTFTEYNMDWVRQAPGQGLEWMGDIIPNYDSATYNQKFKGRVTMTRDTSTSTVYMELSSLRSEDTAVYYCARKGGGYVNWYFDVWGQGTTVTVSS VL: DIQMTQSPSSLSASVGDRVTITCHASQNINVWLSWYQQKPGKAPKLLIYKASNLHTGVPSRFSGSGSGTDFTFTISSLQPEDIATYYCQQGESYPYTFGGGTKVEIK |  |
| 0.082 | 2.1e-05 | 256000 | Hm3L (antibody, V domains shown) VH: EVQLVQSGAEVKKPGASVKVSCKASGYTFTDYNMHWVRQAPGQGLEWMGDIIPNYDSATYNQKFKGRVTMTRDTSTSTVYMELSSLRSEDTAVYYCARKGGGYVNWYFDVWGQGTTVTVSS VL: DIQMTQSPSSLSASVGDRVTITCHASQNINVWLSWYQQKPGKAPKLLIYKASNLHTGVPSRFSGSGSGTDFTFTISSLQPEDIATYYCQQGESYPYTFGGGTKVEIK |  |
| 0.0794 | 2.55e-05 | 321000 | Hm5L (antibody, V domains shown) VH: EVQLVQSGAEVKKPGASVKVSCKASGYTFTDYNMDWVRQAPGQGLEWMGDIIPNYESATYNQKFKGRVTMTRDTSTSTVYMELSSLRSEDTAVYYCARKGGGYVNWYFDVWGQGTTVTVSS VL: DIQMTQSPSSLSASVGDRVTITCHASQNINVWLSWYQQKPGKAPKLLIYKASNLHTGVPSRFSGSGSGTDFTFTISSLQPEDIATYYCQQGESYPYTFGGGTKVEIK |  |
| 0.0785 | 1.53e-05 | 195000 | Hm6L (antibody, V domains shown) VH: EVQLVQSGAEVKKPGASVKVSCKASGYTFTDYNMDWVRQAPGQGLEWMGDIIPNYDSATYAQKFKGRVTMTRDTSTSTVYMELSSLRSEDTAVYYCARKGGGYVNWYFDVWGQGTTVTVSS VL: DIQMTQSPSSLSASVGDRVTITCHASQNINVWLSWYQQKPGKAPKLLIYKASNLHTGVPSRFSGSGSGTDFTFTISSLQPEDIATYYCQQGESYPYTFGGGTKVEIK | EC50 [5]: 0.199 µg/mL |
